Experimental data as given in US20210388087A1 (Chugai, published 2021).
Numbering of substitutions follows the chain as printed.

B1: CE115HA000 N54F (antibody, human IgG1, kappa, L234A L235A, N297A, name in Kabat numbering)
heavy: QVQLVESGGGVVQPGRSLRLSCAASGFTFSNAWMHWVRQAPGKGLEWVAQIKAKSNFYATYYAESVKGRFTISRDDSKNSLYLQMNSLKTEDTAVYYCRYVHYGAYYGVDAWGQGTTVTVSSASTKGPSVFPLAPSSKSTSGGTAALGCLVKDYFPEPVTVSWNSGALTSGVHTFPAVLQSSGLYSLSSVVTVPSSSLGTQTYICNVNHKPSNTKVDKKVEPKSCDKTHTCPPCPAPEAAGGPSVFLFPPKPKDTLMISRTPEVTCVVVDVSHEDPEVKFNWYVDGVEVHNAKTKPREEQYASTYRVVSVLTVLHQDWLNGKEYKCKVSNKALPAPIEKTISKAKGQPREPQVYTLPPSRCELTKNQVSLSCAVKGFYPSDIAVEWESNGQPENNYKTTPPVLDSDGSFFLVSKLTVDKSRWQQGNVFSCSVMHEALHNHYTQKSLSLSPDYKDDDDK
chain: EPKSSDKTHTCPPCPAPELLGGPSVFLFPPKPKDTLMISRTPEVTCVVVDVSHEDPEVKFNWYVDGVEVHNAKTKPREEQYNSTYRVVSVLTVLHQDWLNGKEYKCKVSNKALPAPIEKTISKAKGQPREPQVCTLPPSRDELTKNQVSLWCLVKGFYPSDIAVEWESNGQPENNYKTTPPVLDSDGSFFLYSKLTVDKSRWQQGNVFSCSVMHEALHNRYTQKSLSLSP
light: DIVMTQSPLSLPVTPGEPASISCRSSQSLVHSNRNTYLHWYQQKPGQAPRLLIYKVSNRFSGVPDRFSGSGSGTDFTLKISRVEAEDVGVYYCGQGTQVPYTFGQGTKLEIKRTVAAPSVFIFPPSDEQLKSGTASVVCLLNNFYPREAKVQWKVDNALQSGNSQESVTEQDSKDSTYSLSSTLTLSKADYEKHKVYACEVTHQGLSSPVTKSFNRGEC
notes: one-arm antibody
B2: CE115HA000 Q50Y (antibody, human IgG1, kappa, L234A L235A, N297A, name in Kabat numbering)
heavy: B1 heavy with Q50Y, F57N
chain: B1 chain
light: B1 light
notes: one-arm antibody
B3: CE115HA000 Q50S (antibody, human IgG1, kappa, L234A L235A, N297A, name in Kabat numbering)
heavy: B1 heavy with Q50S, F57N
chain: B1 chain
light: B1 light
notes: one-arm antibody
B4: CE115HA000 Q50I (antibody, human IgG1, kappa, L234A L235A, N297A, name in Kabat numbering)
heavy: B1 heavy with Q50I, F57N
chain: B1 chain
light: B1 light
notes: one-arm antibody
B5: CE115HA000 N54Q (antibody, human IgG1, kappa, L234A L235A, N297A, name in Kabat numbering)
heavy: B1 heavy with F57Q
chain: B1 chain
light: B1 light
notes: one-arm antibody
B6: CE115HA000 N54S (antibody, human IgG1, kappa, L234A L235A, N297A, name in Kabat numbering)
heavy: B1 heavy with F57S
chain: B1 chain
light: B1 light
notes: one-arm antibody
B7: CE115HA000 Q50D (antibody, human IgG1, kappa, L234A L235A, N297A, name in Kabat numbering)
heavy: B1 heavy with Q50D, F57N
chain: B1 chain
light: B1 light
notes: one-arm antibody
B8: CE115HA000 R16Q (antibody, human IgG1, kappa, L234A L235A, N297A, name in Kabat numbering)
heavy: B1 heavy with R16Q, F57N
chain: B1 chain
light: B1 light
notes: one-arm antibody
B9: CE115HA000 S62D (antibody, human IgG1, kappa, L234A L235A, N297A, name in Kabat numbering)
heavy: B1 heavy with F57N, S65D
chain: B1 chain
light: B1 light
notes: one-arm antibody
B10: CE115HA000 Q50A (antibody, human IgG1, kappa, L234A L235A, N297A, name in Kabat numbering)
heavy: B1 heavy with Q50A, F57N
chain: B1 chain
light: B1 light
notes: one-arm antibody
B11: CE115HA000 Q50K (antibody, human IgG1, kappa, L234A L235A, N297A, name in Kabat numbering)
heavy: B1 heavy with Q50K, F57N
chain: B1 chain
light: B1 light
notes: one-arm antibody
B12: CE115HA000 N82aD (antibody, human IgG1, kappa, L234A L235A, N297A, name in Kabat numbering)
heavy: B1 heavy with F57N, N86D
chain: B1 chain
light: B1 light
notes: one-arm antibody
B13: CE115HA000 R16E (antibody, human IgG1, kappa, L234A L235A, N297A, name in Kabat numbering)
heavy: B1 heavy with R16E, F57N
chain: B1 chain
light: B1 light
notes: one-arm antibody
B14: CE115HA000 N54K (antibody, human IgG1, kappa, L234A L235A, N297A, name in Kabat numbering)
heavy: B1 heavy with F57K
chain: B1 chain
light: B1 light
notes: one-arm antibody
B15: CE115HA000 S52cK (antibody, human IgG1, kappa, L234A L235A, N297A, name in Kabat numbering)
heavy: B1 heavy with S55K, F57N
chain: B1 chain
light: B1 light
notes: one-arm antibody
B16: CE115HA000 Q50L (antibody, human IgG1, kappa, L234A L235A, N297A, name in Kabat numbering)
heavy: B1 heavy with Q50L, F57N
chain: B1 chain
light: B1 light
notes: one-arm antibody
B17: CE115HA000 N54G (antibody, human IgG1, kappa, L234A L235A, N297A, name in Kabat numbering)
heavy: B1 heavy with F57G
chain: B1 chain
light: B1 light
notes: one-arm antibody
B18: CE115HA000 S52cD (antibody, human IgG1, kappa, L234A L235A, N297A, name in Kabat numbering)
heavy: B1 heavy with S55D, F57N
chain: B1 chain
light: B1 light
notes: one-arm antibody
B19: CE115HA000 N54Y (antibody, human IgG1, kappa, L234A L235A, N297A, name in Kabat numbering)
heavy: B1 heavy with F57Y
chain: B1 chain
light: B1 light
notes: one-arm antibody
B20: CE115HA000 S30G (antibody, human IgG1, kappa, L234A L235A, N297A, name in Kabat numbering)
heavy: B1 heavy with S30G, F57N
chain: B1 chain
light: B1 light
notes: one-arm antibody
B21: CE115HA000 S52cL (antibody, human IgG1, kappa, L234A L235A, N297A, name in Kabat numbering)
heavy: B1 heavy with S55L, F57N
chain: B1 chain
light: B1 light
notes: one-arm antibody
B22: CE115HA000 Q50E (antibody, human IgG1, kappa, L234A L235A, N297A, name in Kabat numbering)
heavy: B1 heavy with Q50E, F57N
chain: B1 chain
light: B1 light
notes: one-arm antibody
B23: CE115HA000 S52cY (antibody, human IgG1, kappa, L234A L235A, N297A, name in Kabat numbering)
heavy: B1 heavy with S55Y, F57N
chain: B1 chain
light: B1 light
notes: one-arm antibody
B24: CE115HA000 S52cV (antibody, human IgG1, kappa, L234A L235A, N297A, name in Kabat numbering)
heavy: B1 heavy with S55V, F57N
chain: B1 chain
light: B1 light
notes: one-arm antibody
B25: CE115HA000 N76S (antibody, human IgG1, kappa, L234A L235A, N297A, name in Kabat numbering)
heavy: B1 heavy with F57N, N79S
chain: B1 chain
light: B1 light
notes: one-arm antibody
B26: CE115HA000 Q105E (antibody, human IgG1, kappa, L234A L235A, N297A, name in Kabat numbering)
heavy: B1 heavy with F57N, Q114E
chain: B1 chain
light: B1 light
notes: one-arm antibody
B27: CE115HA000 S52cF (antibody, human IgG1, kappa, L234A L235A, N297A, name in Kabat numbering)
heavy: B1 heavy with S55F, F57N
chain: B1 chain
light: B1 light
notes: one-arm antibody
B28: CE115HA000 S52cG (antibody, human IgG1, kappa, L234A L235A, N297A, name in Kabat numbering)
heavy: B1 heavy with S55G, F57N
chain: B1 chain
light: B1 light
notes: one-arm antibody
B29: CE115HA000 R19T (antibody, human IgG1, kappa, L234A L235A, N297A, name in Kabat numbering)
heavy: B1 heavy with R19T, F57N
chain: B1 chain
light: B1 light
notes: one-arm antibody
B30: CE115HA000 S52cA (antibody, human IgG1, kappa, L234A L235A, N297A, name in Kabat numbering)
heavy: B1 heavy with S55A, F57N
chain: B1 chain
light: B1 light
notes: one-arm antibody
B31: CE115HA000 S30D (antibody, human IgG1, kappa, L234A L235A, N297A, name in Kabat numbering)
heavy: B1 heavy with S30D, F57N
chain: B1 chain
light: B1 light
notes: one-arm antibody
B32: CE115HA000 S52cQ (antibody, human IgG1, kappa, L234A L235A, N297A, name in Kabat numbering)
heavy: B1 heavy with S55Q, F57N
chain: B1 chain
light: B1 light
notes: one-arm antibody
B33: CE115HA000 N54L (antibody, human IgG1, kappa, L234A L235A, N297A, name in Kabat numbering)
heavy: B1 heavy with F57L
chain: B1 chain
light: B1 light
notes: one-arm antibody

target: T1, CD3 epsilon homodimer protein (UniProt P07766 23-126); assay: SPR, CD3 epsilon homodimer on chip, one-arm antibody as analyte;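 also: surface plasmon resonance at 25 °C with CD3 epsilon homodimer amine-coupled to a CM4 sensor chip, antibody injected as analyte, HBS-EP+ as running buffer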
T1 construct: also called CD3 (CD3 epsilon)
T1 sequence (P07766 23-126): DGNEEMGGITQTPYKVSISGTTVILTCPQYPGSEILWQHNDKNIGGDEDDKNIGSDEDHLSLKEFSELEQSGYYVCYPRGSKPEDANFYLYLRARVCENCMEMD

Binder | KD ratio (KD of CE115HA000/KD of altered form)
B1 | 0.97
B2 | 49.1
B3 | 47.4
B4 | 1.21
B5 | 0.8
B6 | 0.57
B7 | 75.4
B8 | 0.87
B9 | 0.87
B10 | 22.6
B11 | 0.71
B12 | 0.56
B13 | 0.74
B14 | 0.82
B15 | 0.86
B16 | 1.41
B17 | 0.84

Binder | KD ratio (KD of CE115HA000/KD of altered form)
B18 | 0.55
B19 | 1.03
B20 | 0.93
B21 | 0.94
B22 | 16700
B23 | 0.87
B24 | 0.82
B25 | 0.84
B26 | 0.89
B27 | 0.93
B28 | 0.81
B29 | 0.81
B30 | 0.87
B31 | 0.79
B32 | 0.97
B33 | 0.91
